According to article PMC5577056 (Scientific Reports, 2017):

Tests used:
Settings in all cases: both partners purified
lysozyme [1] = molecular target: T1, lysozyme (Gallus gallus (hen egg white), by PDB …, UniProt P00698); assay: ITC; antibody (about 30 uM) titrated into lysozyme (about 2 uM), 25 injections of 10 ul; PBS (20 mM, pH 7.4), 143 mM NaCl; 293 K (20 °C)
T1 construct: lysozyme, the antigen of the anti-lysozyme antibody HyHEL-10; also called antigen

lysozyme [2] = molecular target: T1, lysozyme; assay: ITC; antibody (about 30 uM) titrated into lysozyme (about 2 uM), 25 injections of 10 ul; PBS (20 mM, pH 7.4), 143 mM NaCl; 298 K (25 °C)
lysozyme [3] = molecular target: T1, lysozyme; assay: ITC; antibody (about 30 uM) titrated into lysozyme (about 2 uM), 25 injections of 10 ul; PBS (20 mM, pH 7.4), 143 mM NaCl; 303 K (30 °C)
lysozyme [4] = molecular target: T1, lysozyme; assay: ITC; antibody (about 30 uM) titrated into lysozyme (about 2 uM), 25 injections of 10 ul; PBS (20 mM, pH 7.4), 143 mM NaCl; 293 K (20 °C); remark: listed apart in the source

T1 sequence (P00698 19-147): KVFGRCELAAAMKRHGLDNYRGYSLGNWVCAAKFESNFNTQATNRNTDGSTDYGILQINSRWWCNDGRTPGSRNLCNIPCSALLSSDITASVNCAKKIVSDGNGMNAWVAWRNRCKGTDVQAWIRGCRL

dH (lysozyme [1]) [kcal/mol] | dH (lysozyme [2]) [kcal/mol] | dH (lysozyme [3]) [kcal/mol] | dH (lysozyme [4]) [kcal/mol] | Binder
-23.78 ± 0.0598 | -27.1 ± 0.086 | -31.1 ± 0.347 | – | HyHEL-10 Fv fragment, H:R71A mutant (antibody, V domains shown, as the VH of m1, with R71A; as the VL of m1; Fv fragment; the text throughout has H:R71A) VH: DVQLQESGPSLVKPSQTLSLTCSVTGDSITSDYWSWIRKFPGNRLEYMGYVSYSGSTYYNPSLKSRISITADTSKNQYYLDLNSVTTEDTATYYCANWDGDYWGQGTLVTVSA VL: DIVLTQSPATLSVTPGNSVSLSCRASQSIGNNLHWYQQKSHESPRLLIKYASQSISGIPSRFSGSGSGTDFTLSINSVETEDFGMYFCQQSNSWPYTFGGGTKLEIK
– | -17.57 ± 0.0359 | -18.97 ± 0.055 | -16.46 ± 0.0502 | HyHEL-10 Fv fragment, L:R45A mutant (antibody, V domains shown, as the VH of m1; as the VL of m1, with R45A; Fv fragment; the text throughout has L:R45A) VH: DVQLQESGPSLVKPSQTLSLTCSVTGDSITSDYWSWIRKFPGNRLEYMGYVSYSGSTYYNPSLKSRISITRDTSKNQYYLDLNSVTTEDTATYYCANWDGDYWGQGTLVTVSA VL: DIVLTQSPATLSVTPGNSVSLSCRASQSIGNNLHWYQQKSHESPALLIKYASQSISGIPSRFSGSGSGTDFTLSINSVETEDFGMYFCQQSNSWPYTFGGGTKLEIK
